According to US8840886B2, “Method of treating cancer with DLL4 antagonist and chemotherapeutic agent” (Regeneron Pharmaceuticals, Inc., priority 2009, dated 2014):

Key:
[1] = tested on: human VM-Cub1 tumor cells (bladder carcinoma cells); experiment: VM-Cub1 bladder carcinoma xenograft tumor growth, REGN421 with cisplatin (Example 1); type: in vivo, mouse; settings: for TGI: 3 doses, at day 32; for Euthanized: control cohort euthanized day 32; for TGD: time to 600 mm^3 vs control
Method: The effect of anti-Dll4 antibody (REGN421) in combination with cisplatin (platinol, cis-diamminedichloroplatinum) on tumor growth was evaluated on tumors implanted in Severe Combined Immunodeficiency (SCID) mice expressing a humanized Dll4 protein (humanized Dll4 SCID mice). The humanized Dll4 SCID mouse was made by replacing the entire extracellular domain of the mouse Dll4 gene with the corresponding extracellular region of the human Dll4 gene (7 kb) in embryonic stem (ES) cells. Homozygous hDll4 mice were generated and bred into SCID background.
Each mouse was implanted subcutaneously (sc) with 1×10^6 human VM-Cub1 tumor cells (bladder carcinoma cells) plus MATRIGEL™ (BD Biosciences, #354234). After the tumors were established in the mice (tumor size of 150-200 mm^3, approximately 14 days after implantation), tumors were measured, randomized and treated with hFc, REGN421, cisplatin, or combination of REGN421 and cisplatin. A total of 45 mice were divided into nine groups (n=5 per cohort). The first group was treated subcutaneously (sc) with hFc at 2 mg/kg; the second and third groups were treated sc with REGN421 at 0.5 and 2 mg/kg, respectively; the fourth and fifth groups were treated intraperitoneally (ip) with cisplatin at 0.5 and 2 mg/kg, respectively; the sixth group was treated sc with REGN421 at 0.5 mg/kg and ip with cisplatin at 0.5 mg/kg; the seventh group was treated sc with REGN421 at 0.5 mg/kg and ip with cisplatin at 2 mg/kg; the eighth group was treated sc with REGN421 at 2 mg/kg and ip with cisplatin at 0.5 mg/kg; and the ninth group was treated sc with REGN421 at 2 mg/kg and ip with cisplatin at 2 mg/kg. REGN421 was administered every 3-4 days starting on day 14 and mice received three doses total. Cisplatin was administered every 24 hours starting on day 14; mice received four doses total.
To assess the effects of REGN421 and cisplatin as single agents or in combination treatments, the changes in tumor size were recorded. Tumor growth was measured three days before the initial REGN421 treatment, on the day of each REGN421 treatment (days 14, 17 and 21) and thereafter every 3-4 days until tumors reached ˜600 mm^3 in size. In vivo tumor size was calculated using the formula (length×width^2)/2 (FIG. 1 and Table 1).
Tumor Growth Inhibition, TGI, was determined by calculating the difference in tumor size for treated (T) versus vehicle control (C) tumor at the day the control cohort was euthanized (i.e., at day 32); TGI=[1−(Tfinal−Tinitial)/(Cfinal−Cinitial)]×100.
Tumor growth delay, TGD, was assessed as the difference in days between treated (T) versus control (C) tumors when each cohort reached a specified tumor size. The predetermined tumor size for this experiment was 600 mm^3.

[2] = tested on: human A549 tumor cells (non-small cell lung cancer); experiment: A549 NSCLC xenograft tumor growth, REGN421 with cisplatin (Example 2); type: in vivo, mouse; settings: REGN421 2 mg/kg sc (6 mg/kg total dose)
Method: The effect of REGN421 in combination with cisplatin on tumor growth was evaluated on tumors implanted in humanized Dll4 SCID mice, as described above. Each mouse was implanted subcutaneously (sc) with 5×10^6 human A549 tumor cells (non-small cell lung cancer or “NSCLC”). After the tumors were established in the mice (tumor size of 100-150 mm^3, approximately 29 days after implantation), tumors were measured, randomized and treated with hFc, REGN421, cisplatin or combination of REGN421 and cisplatin. A total of 36 mice were divided into 6 groups (n=6 per cohort). The first group was treated sc with hFc at 2 mg/kg; the second group was treated sc with REGN421 at 2 mg/kg; the third and fourth groups were treated ip with cisplatin at 2.5 and 4.5 mg/kg, respectively; the fifth group was treated sc with REGN421 at 2 mg/kg and ip with cisplatin at 2.5 mg/kg; and the sixth group was treated sc with REGN421 at 2 mg/kg and ip with cisplatin at 4.5 mg/kg. REGN421 was administered every 3-4 days starting on day 29 and mice received three doses total. Cisplatin was administered every 24 hours starting on day 29 and mice received two doses total.
To assess the effects of REGN421 and cisplatin as single agents or in combination we measured tumor size (volume), beginning three days before the initial REGN421 treatment, on the day of each agent treatment (days 29, 30, 33, 36) and thereafter every 3-4 days until tumors reached ˜600 mm^3 in size. In vivo tumor size was calculated using the formula (length×width^2)/2.

[3] = Phase I pharmacokinetics of REGN421, single 30-min IV infusion, ELISA (Example 8); type: in vivo, human; settings: mean
Method: REGN421 is currently being studied in a first-in-human trial. The primary objective of the study is to determine the recommended dose of REGN421 for future efficacy trials. The secondary objectives are to characterize the drug safety profile, its pharmacokinetics, immunogenicity, and pharmacodynamics, as well as preliminary evidence of efficacy. In this study, anti-hDll4 antibody REGN 421 is administered intravenously every 3 weeks to patients whose cancer has progressed on conventional therapy. The study design follows standard methodology for dose escalation and definition of dose-limiting toxicity. To date, 7 patients have been treated at 0.25 mg/kg/dose every three weeks, and 6 patients have been treated at 0.50 mg/kg/dose every three weeks. For the pharmacokinetic study, blood samples were taken at pre-dose, 0 hour, and post-dose 1, 2, 4 and 8 hours on Day 1, followed by Days 2, 3, 4, 8 and 15 of Cycle 1; and pre-dose, 0 hour on Day 1 of Cycles≧2, and post-treatment follow-up on Days 15, 30 and 60. Plasma/serum levels of REGN421 in the samples are measured by ELISA with an upper limit of quantification of 2.5 μg/mL and a lower limit of quantification of 0.039 μg/mL in the undiluted serum sample. The study is ongoing with the intent to administer higher doses, defined in the protocol as 1, 2, 4, and 7 mg/kg/dose.
The currently available data showing plasma pharmacokinetic parameters following single 30-min. Cmax: Maximum serum concentration of the drug; Tlast: Time to the last quantifiable concentration of the drug; Clast: Last quantifiable concentration of the drug; AUClast: Area under curve up to the last concentration of the drug; AUC: Total area under the curve (i.e., drug exposure); t1/2Z: Terminal half life; Vss: Volume of distribution at steady state; CL: Drug clearance rate. Values are: mean, (CV %), and [range] (a: median [range]).

B1: REGN421: anti-hDll4 antibody comprising HCVR/LCVR combination of SEQ ID NO:116/118 (antibody, V domains shown)
VH: QVQLVESGGGVVQPGRSLRLSCAASGFTFSSYGMHWVRQAPGKGLEWVSFLWYDGTNKNYVESVKGRFTISRDNSKNMLYLEMNSLRAEDTAVYYCARDHDFRSGYEGWFDPWGQGTLVTVSS
VL: EIVLTQSPATLSLSPGERATLSCRASQSVSSYLAWYQQKPGQAPRLLIYDASNRATGIPARFSGSGSGTDFTLTISSLEPEDFAVYYCQHRSNWPPTFGGGTKVEIK
TGI ([1]; REGN421 0.5 mg/kg/dose sc): −13.7% | Euthanized ([1]; REGN421 0.5 mg/kg/dose sc): 32 days | TGD ([1]; REGN421 0.5 mg/kg/dose sc): 0 days | TGI ([1]; REGN421 2 mg/kg/dose sc): 83.1% | Euthanized ([1]; REGN421 2 mg/kg/dose sc): 44 days | TGD ([1]; REGN421 2 mg/kg/dose sc): 12 days | TGD [2]: 8 days | AUC ([3]; 0.25 mg/kg IV, n = 7 patients): 489 µg·h/mL | AUClast ([3]; 0.25 mg/kg IV, n = 7 patients): 452 µg·h/mL | AUC ([3]; 0.5 mg/kg IV, n = 2 patients): 963 µg·h/mL | AUClast ([3]; 0.5 mg/kg IV, n = 2 patients): 759 µg·h/mL
